Laboratory results published in article PMC8355310, “Using cryo-EM to understand antimycobacterial resistance in the catalase-peroxidase (KatG) from Mycobacterium tuberculosis” (Structure(London, England:1993), 2021).
Numbering of substitutions follows the chain as printed. In names and notes the source's numbering stands.

B1: wild-type catalase-peroxidase KatG from Mycobacterium tuberculosis (enzyme)
chain: MPEQHPPITETTTGAASNGCPVVGHMKYPVEGGGNQDWWPNRLNLKVLHQNPAVADPMGAAFDYAAEVATIDVDALTRDIEEVMTTSQPWWPADYGHYGPLFIRMAWHAAGTYRIHDGRGGAGGGMQRFAPLNSWPDNASLDKARRLLWPVKKKYGKKLSWADLIVFAGNCALESMGFKTFGFGFGRVDQWEPDEVYWGKEATWLGDERYSGKRDLENPLAAVQMGLIYVNPEGPNGNPDPMAAAVDIRETFRRMAMNDVETAALIVGGHTFGKTHGAGPADLVGPEPEAAPLEQMGLGWKSSYGTGTGKDAITSGIEVVWTNTPTKWDNSFLEILYGYEWELTKSPAGAWQYTAKDGAGAGTIPDPFGGPGRSPTMLATDLSLRVDPIYERITRRWLEHPEELADEFAKAWYKLIHRDMGPVARYLGPLVPKQTLLWQDPVPAVSHDLVGEAEIASLKSQIRASGLTVSQLVSTAWAAASSFRGSDKRGGANGGRIRLQPQVGWEVNDPDGDLRKVIRTLEEIQESFNSAAPGNIKVSFADLVVLGGCAAIEKAAKAAGHNITVPFTPGRTDASQEQTDVESFAVLEPKADGFRNYLGKGNPLPAEYMLLDKANLLTLSAPEMTVLVGGLRVLGANYKRLPLGVFTEASESLTNDFFVNLLDMGITWEPSPADDGTYQGKDGSGKVKWTGSRVDLVFGSNSELRALVEVYGADDAQPKFVQDFVAAWDKVMNLDRFDVR
modifications: covalent linkage between Trp107, Tyr229 and Met255 (MYW catalytic triad); b-type heme bound in both protomers
notes: also called WT KatG; KatG^INH (with INH added); not shown: His-tag, N-terminal, cleaved
B2: KatG T275P variant from Mycobacterium tuberculosis (enzyme)
chain: B1 chain with T275P
notes: Homodimer (C2 symmetry imposed); no ordered heme modelled in either protomer; also called T275P KatG; not shown: His-tag, N-terminal, cleaved
B3: KatG W107R variant from Mycobacterium tuberculosis (enzyme)
chain: B1 chain with W107R
notes: also called W107R KatG; not shown: His-tag, N-terminal, cleaved

Biological target: the molecule itself
Assay: cryo-EM structure

Row | Protein | binding result
1 | B1 | binds
2 | B2 | binds
3 | B3 | binds
